Experimental data reported in US20170298119A1.
Substitutions are numbered along the chain they refer to.

B1: ZC1 (antibody, V domains shown)
VH: QVQLVQSGAEVKKPGASVKVSCKASGYTFTSYGISWVRQATGQGLEWMGVIYPRSGNTYYAEKFRGRVTMTADKSISTAYMELSSLRSEDTAVYYCARENYGSVYWGQGTLVTVSS
VL: EIVMTQSPATLSVSPGERATLSCRASQSVGTAVAWYQQKPGQAPRLLIYSASNRYTGIPARFSGSGSGTEFTLTISSLQSEDFADYFCQQFYNYPFTFGGGTKVEIK
B2: ZC5 (antibody, V domains shown)
VH: QVQLVQSGAEVKKPGASVKVSCKASGYSFTTYGISWVRQAPGQGLEWMGVIYPRSGNTYYAQKLQGRVTMTTDTSTSTAYMELRSLRSDDTAVYYCARENYGSVYWGQGTLVTVSS
VL: B1 VL
B3: ZC9 (antibody, V domains shown)
VH: B2 VH with S28T, T31S
VL: B1 VL
B4: ZC6 (antibody, V domains shown)
VH: B2 VH
VL: DIQMTQSPSSLSASVGDRVTITCKASQSVGTAVAWYQQKPGKAPKLLIYSASNRYTGVPSRFSGSGSGTDFTLTISSLQPEDFATYFCQQFSNYPFTFGGGTKVEIK

Molecular target: ZIKV strain MR766 (E protein on infectious virus) (Zika virus strain MR766) (UniProt Q32ZE1)
Assay: cell-based or functional assay

Binder | in vitro neutralization EC50 (foci counted on Vero cells)
B1 | < 0.02 µg/mL
B2 | < 0.02 µg/mL
B3 | < 0.02 µg/mL
B4 | < 0.02 µg/mL
